Data set [1] has as its target T1, PDGF-BB (human, UniProt P01127 P01127:82-190). The experiment in a line: filter; all-DNA ARC126 used in the chimera; dot blot. The following applies: tags: PeproTech (ERK assay: R&D Systems); chain copies: 2 inferred. The source says: (§1) Protein-associated radio-label is captured on the nitrocellulose membrane while the balance of the radio-label is captured on the nylon membrane. The radio-label data is collected on a phosphorimaging plate.

The next data set concerns the target VEGF (UniProt P15692-4 P15692-4:27-191). The data set is described as follows: filter; dot blot. The settings on record: chain copies: 2.
Description: as §1

In data set [2] the target is T1, PDGF-BB. The data set is described as follows: filter; recognises VEGF but not PDGF. The settings on record: tags: PeproTech (ERK assay: R&D Systems); chain copies: 2 inferred.
The target in data set [3] is T2, PDGF-AA short form (human, UniProt P04085-2 P04085-2:87-196). The data set is described as follows: filter; N.B., no significant binding. The following applies: tags: Roche Biomedical (short form); chain copies: 2 inferred; label: 5'-32P. The protocol: (§2) Dot blot binding assays were performed throughout the selection to monitor the protein binding affinity of the pool. Trace ³²P-labeled RNA was combined with PDGF-AA and incubated at room temperature for 30 min in 1× SHMCK plus 0.1 mg/ml tRNA for a final volume of 20 μl. The reaction was added to a dot blot apparatus (Schleicher and Schuell Minifold-1 Dot Blot, Acrylic), assembled (from top to bottom) with nitrocellulose, nylon, and gel blot membranes. RNA that is bound to protein is captured on the nitrocellulose filter, whereas the non-protein bound RNA is captured on the nylon filter.

The target in data set [4] is T3, PDGF-AA (rat, UniProt P28576 P28576:86-204). The data set is described as follows: filter; N.B., no significant binding. The settings on record: chain copies: 2 inferred; label: 5'-32P. The protocol: as §2
In data set [5] the target is T1, PDGF-BB. The data set is described as follows: filter; dot blot. The settings on record: tags: PeproTech (ERK assay: R&D Systems); chain copies: 2 inferred.
Description: as §1

In data set [6] the target is T3, PDGF-AA. The data set is described as follows: filter; 1x SHMCK, 0.1 mg/mL tRNA, RT. The settings on record: chain copies: 2 inferred; label: 5'-32P. The protocol:
as §2

For data set [7], the target named is T2, PDGF-AA short form. The experiment in a line: filter; 1x SHMCK (Mg, Ca), 0.1 mg/mL tRNA, RT; 2-3 fold lower without tRNA. The settings on record: tags: Roche Biomedical (short form); chain copies: 2 inferred; label: 5'-32P. The protocol: as §2
Data set [8] addresses T2, PDGF-AA short form. The data set is described as follows: filter; 1x SHMCK, 0.1 mg/mL tRNA, RT. The following applies: tags: Roche Biomedical (short form); chain copies: 2 inferred; label: 5'-32P. The protocol: as §2

Changes are numbered by the printed parent chain.

T1 sequence (P01127 82-190, one chain of several): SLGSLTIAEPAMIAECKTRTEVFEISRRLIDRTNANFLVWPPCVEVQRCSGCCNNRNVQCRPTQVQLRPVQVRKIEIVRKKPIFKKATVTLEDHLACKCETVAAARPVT
VEGF, sequence (P15692 other isoform, or with tags, fused parts or gaps): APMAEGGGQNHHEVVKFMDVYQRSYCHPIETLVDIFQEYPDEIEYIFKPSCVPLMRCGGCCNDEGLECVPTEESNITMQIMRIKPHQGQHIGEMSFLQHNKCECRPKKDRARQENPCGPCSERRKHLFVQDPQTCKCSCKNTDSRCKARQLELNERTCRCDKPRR

As usually defined, the Kd is the constant that tells how readily two partners part at equilibrium. CAGGCTACGCGTAGAGCATCATGATCCTG (ssDNA, 3' inverted dT (SEQ ID NO: 8)) [deoxyARC126] registered a Kd with PDGF-BB [1] of approximately 0.1 nM.

In the data set with VEGF, AUGCAGUUUGAGAAGUCGCGCAU (XNA, all 2'-OMe; 3' inverted dT) [ARC245] registered a Kd of approximately 2 nM. The binding result with PDGF-BB [2] is on record as “no binding”.

B1: ARX33P1.D1 (ssRNA)
RNA: GGGAAAAGCGAAUCAUACACAAGAUCGCCAGGAGCAAAGUCACGGAGGAGUGGGGGUACGAAUGCUCCGCCAGAGACCAACCGAGAA
modifications: 2'-F pyrimidines, 2'-OH purines
Regarding B1, the binding result in the data set with PDGF-AA short form [3] and in the data set with PDGF-AA [4] was “no binding” each time.

B2: TK.131.012.B (mixed)
mixed: CAGGCTACGUGCAGUUUGAGAAGUCGCGCACGTAGAGCATCAGAAATGATCCTG
modifications: DNA (PDGF part) with 2'-OMe VEGF part (ARC245 lacking first mA-mU pair); 3' inverted dT
Take B2: the Kd with PDGF-BB [5] was approximately 10 nM; with VEGF it was approximately 5 nM.

B3: ARX33P1.D2 (ssRNA)
RNA: GGGAAAAGCGAAUCAUACACAAGACCGGGAACUCGGAUUCUUCGCAUGUGGAUGCGAUCAGUAUGCUCCGCCAGAGACCAACCGAGAA
modifications: 2'-F pyrimidines, 2'-OH purines
As to B3, the Kd with PDGF-AA [6] is 51.7 nM; in the data set with PDGF-AA short form [7], 104 nM.

B4: ARX33P1.E5 (ssRNA)
RNA: B3 RNA with G44A, C55U
modifications: 2'-F pyrimidines, 2'-OH purines
Take B4: the Kd was 117 nM with PDGF-AA short form [8] and 57.4 nM with PDGF-AA [6].

B5: ARX33P1.E10 (ssRNA)
RNA: B3 RNA with G29A
modifications: 2'-F pyrimidines, 2'-OH purines
On to B5, for which the Kd in the data set with PDGF-AA short form [8] was determined as 133 nM; with PDGF-AA [6], 47.1 nM.

B6: ARX33P1.E11 (ssRNA)
RNA: GGGAAAAGCGAAUCAUACACAAGAGAGUGGAGGAGGUAUGUAUGGUUUGUGCGUCUGGUGCGGUGCUCCGCCAGAGACCAACCGAGAA
modifications: 2'-F pyrimidines, 2'-OH purines
On to B6, for which the binding result in the data set with PDGF-AA short form [3] and with PDGF-AA [4] was “no binding” throughout.

B7: TK.131.012.A (mixed)
mixed: CAGGCTACGAUGCAGUUUGAGAAGUCGCGCAUCGTAGAGCATCAGAAATGATCCTG
modifications: DNA (PDGF part) with 2'-OMe VEGF part (ARC245); 3' inverted dT
For the molecule B7, the Kd with PDGF-BB [5] and in the data set with VEGF was approximately 10 nM in each case.

Source of the values: patent publication US20150140120, “STABILIZED APTAMERS TO PLATELET DERIVED GROWTH FACTOR AND THEIR USE AS ONCOLOGY THERAPEUTICS” (ARCHEMIX LLC, published 2015).
